Measurements: patent publication US20070111222

System: T1, fluorogenic peptide CAGSGSGPR-AMC (AMC=7-amino-4-methyl-coumarin)
T1 sequence: CAGSGSGPR

trypsin was tested, and the “release of fluorescent AMC (cleavage of the immobilized fluorogenic peptide)” value was “Adding trypsin to these disks results in the release of fluorescent AMC”.
